Positions count from the first letter of the chain named. Blank lines part the entries; values can stand above or below the binder they belong to.
Tests used:
[1] = molecular target: T1, His-tagged CD70 protein extracellular domain (His-TNC-CD70) (human); assay: SPR Biacore T200, antibody captured by anti-human Fc, His-TNC-CD70 in flow, 1:1 model
T1 construct: Expressed in 293 cells; also called human His-TNC-CD70 antigen; human CD70 antigen
T1 chain: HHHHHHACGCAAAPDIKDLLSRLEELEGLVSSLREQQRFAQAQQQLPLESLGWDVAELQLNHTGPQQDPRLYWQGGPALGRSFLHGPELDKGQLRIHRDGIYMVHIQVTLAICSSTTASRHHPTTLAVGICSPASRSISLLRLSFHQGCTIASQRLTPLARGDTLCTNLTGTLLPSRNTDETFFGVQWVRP
Description: The affinity of the chimeric and humanized antibodies of the present disclosure for the human CD70 antigen was tested using a Biacore instrument. The procedures are as follows:
The human Fc capture molecules were covalently coupled to a CM5 biosensor chip (CAT #BR-1005-30, GE) according to the method described in the instructions of the human Fc capture kit (CAT #BR-1008-39, GE) for affinity capture of the antibodies to be tested. Then, a human His-TNC-CD70 antigen (set forth in SEQ ID NO: 1) flowed through the surface of the chip, and the reaction signal was detected in real time using a Biacore T200 instrument to obtain association and dissociation curves. After the dissociation was completed for each cycle, the biochip was washed and regenerated with a regeneration solution configured in the human antibody capture kit (GE). Data were fitted using a 1:1 model.

[2] = molecular target: T2, human CD70 on cells (CD70-positive 786-O cells, Raji cells, CHO-S cells expressing human full-length CD70, … (human, UniProt P32970 1-193)); assay: cell-based or functional assay
T2 sequence (looked up): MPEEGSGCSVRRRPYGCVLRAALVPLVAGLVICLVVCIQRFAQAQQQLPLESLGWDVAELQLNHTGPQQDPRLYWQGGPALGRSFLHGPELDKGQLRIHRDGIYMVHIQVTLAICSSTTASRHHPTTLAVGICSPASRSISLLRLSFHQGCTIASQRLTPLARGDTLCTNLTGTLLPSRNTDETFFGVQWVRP

[3] = molecular target: T2, human CD70 on cells (CD70-positive …); assay: flow cytometry on CD70-positive Raji cells, Alexa Fluor 488 goat anti-human (H+L) detection
Description: (§1) 786-O cells (ATCC, CRL-1932) or Raji cells (ATCC, CCL-86) at 1×10⁶ cells/mL were blocked with 1% BSA PBS buffer, followed by the addition of diluted anti-CD70 antibody samples at different concentrations were added, and the mixture was incubated for 1 h. After the plate was washed twice, Alexa Fluor 488-goat anti-human (H+L) antibody (Invitrogen, CAT #A 11013) was added, and the mixture was incubated for 1 h. After the plate was washed twice, fluorescence signals were read using a flow cytometer.

[4] = molecular target: T2, human CD70 on cells (CD70-positive …); assay: flow cytometry on CD70-positive 786-O cells, Alexa Fluor 488 goat anti-human (H+L) detection
Description: as §1

[5] = molecular target: T2, human CD70 on cells (CD70-positive …); assay: flow cytometry competition on CHO-S cells expressing human full-length CD70; blocked ligand: biotin-labeled CD27-Fc, Alexa Fluor 488 streptavidin detection
Description: The cell-blocking activity of the anti-CD70 antibodies was assayed by flow cytometry. CHO-S cells expressing human full-length CD70 (Invitrogen, R80007) at 1×10⁶ cells/mL were blocked with 1% BSA PBS buffer, followed by the addition with diluted anti-CD70 antibody samples at different concentrations and biotin-labeled CD27-Fc (set forth in SEQ ID NO: 84), and the mixture was incubated for 1 h. After the plate was washed twice, Alexa Fluor 488-streptavidin (Invitrogen, CAT #S11223) was added, and the mixture was incubated for 1 h. After the plate was washed twice, fluorescence signals were read using a flow cytometer.

B6: huB1026 (antibody, human IgG1, kappa, V domains shown)
VH: EVQMVQSGAEVKKPGASVKVSCKASGYTFTTYNIHWVRQAPGQGLEWMGDIYPGNGDASYNQKFRDRVTMTRDTSTSTVYMELSSLRSEDTAVYYCATFSRFDGWFAYWGQGTLVTVSS
VL: DIVMTQSPDSLAVSLGERATINCRASRSVSTSGYSYMHWYQQKPGQPPKLLIYLASNLESGVPDRFSGSGSGTDFTLTISSLQAEDVAVYYCQHSRELPYTFGGGTKVEIKR
notes: Humanized IgG1
Kd [1]: 0.0503 nM | koff [1]: 9.62e-05 s⁻¹ | kon [1]: 1.91e+06 M⁻¹ s⁻¹

B7: huF4027 (antibody, human IgG1, kappa, V domains shown)
VH: EVQLVQSGAEVKKPGSSVKVSCKASGDTFPRYNMHWVRQAPGQGLEWMGAIFPGNGETSYNQNFKGRVTLTADKSTSTAYMELSSLRSEDTAVYYCARNSYYDYAWFTYWGQGTLVTVSS
VL: B6 VL with R27K, T31S, Y36F, L98F, Y100P, G104Q, V108L
notes: Humanized IgG1
Kd [1]: 0.0335 nM | koff [1]: 9.13e-05 s⁻¹ | kon [1]: 2.73e+06 M⁻¹ s⁻¹

B8: huB1010 (afuc) (antibody, human IgG1, kappa, V domains shown)
VH: B6 VH with N55T
VL: B6 VL with S56D
modifications: non-fucosylated (heavy chain not modified by fucosylation)
notes: also called non-fucosylated antibody of huB1010
EC50 (read off the curve) [3]: ~0.02 µg/mL | EC50 (read off the curve) [4]: ~0.02 µg/mL | IC50 (read off the curve) [5]: ~0.3 µg/mL

B12: huF4028 (antibody, human IgG1, kappa, V domains shown)
VH: B7 VH with V37L, R38K
VL: B6 VL with R27K, T31S, Y36F, L98F, Y100P, G104Q, V108L
notes: Humanized IgG1
Kd [1]: 0.0412 nM | koff [1]: 0.000106 s⁻¹ | kon [1]: 2.56e+06 M⁻¹ s⁻¹

B13: huB1037 (antibody, human IgG1, kappa, V domains shown)
VH: B6 VH with M4L, T98R
VL: B6 VL with T5S, D74N
notes: Humanized IgG1
Kd [1]: 0.0407 nM | koff [1]: 0.00016 s⁻¹ | kon [1]: 3.93e+06 M⁻¹ s⁻¹

B14: huB1038 (antibody, human IgG1, kappa, V domains shown)
VH: B6 VH
VL: B6 VL with T5S, D74N
notes: Humanized IgG1
Kd [1]: 0.0561 nM | koff [1]: 0.000101 s⁻¹ | kon [1]: 1.8e+06 M⁻¹ s⁻¹

B15: huF4025 (antibody, human IgG1, kappa, V domains shown)
VH: B7 VH with D27G, P30S, L70I
VL: B6 VL with R27K, T31S, Y36F, L98F, Y100P, G104Q, V108L
notes: Humanized IgG1
Kd [1]: 0.0403 nM | koff [1]: 8.68e-05 s⁻¹ | kon [1]: 2.15e+06 M⁻¹ s⁻¹

B16: huB7002 (afuc) (antibody, human IgG1, kappa, V domains shown)
VH: EVQLVQSGSELKKPGASVKVSCKASGYTFTNYGMNWVRQAPGQGLEWMGWINTYTGEPTYADEFKGRFVFSLDTSVSTAYLQISSLKAEDTAVYYCARGDSFTTEILRNWYFDVWGQGTTVTVSS
VL: DIQMTQSPSSLSASVGDRVTITCGASENIYGALNWYQQKPGKVPKLLIYGATNLADGVPSRFSGSGSGTDFTLTISSLQPEDVATYYCQNVLSTPWTFGGGTKVEIKR
modifications: non-fucosylated (heavy chain not modified by fucosylation)
notes: also called non-fucosylated antibody of huB7002
IC50 (ng/mL), inhibition of IL-8 secretion mediated by CD70/CD27 binding (U266 cells + HT1080/CD27 cells) [2]: 19.8 ng/mL | Imax (%), maximum inhibition rate of IL-8 secretion from CD27 cells [2]: 91.7% | IC50 (read off the curve) [5]: ~0.4 µg/mL

B18: huB7020 (antibody, human IgG1, kappa, V domains shown)
VH: B16 VH
VL: B16 VL with Q38R, V43S, T69R, D70Q, F71Y
notes: Humanized IgG1
Kd [1]: 0.0276 nM | koff [1]: 0.000159 s⁻¹ | kon [1]: 5.76e+06 M⁻¹ s⁻¹

B19: huB7024 (antibody, human IgG1, kappa, V domains shown)
VH: B16 VH with V2I, A24T, E46K, D73E, S84N
VL: B16 VL with Q38R, V43S, T69R, D70Q, F71Y
notes: Humanized IgG1
Kd [1]: 0.0464 nM | koff [1]: 0.000205 s⁻¹ | kon [1]: 4.41e+06 M⁻¹ s⁻¹

The next lines start with the values.

Kd [1]: 0.0334 nM | koff [1]: 7.54e-05 s⁻¹ | kon [1]: 2.26e+06 M⁻¹ s⁻¹
B1: CHB1 (chimeric antibody of B1) (antibody, human IgG1, kappa, V domains shown)
VH: QVQMQQSGAELVKPGASVMMSCKASGYTFTTYNIHWIKQTPGQGLEWIGDIYPGNGDASYNQKFRDRATLTADRSSSTAYLQLSSLTSEDSAIYYCATFSRFDGWFAYWGQGTLVTVSA
VL: DIVMSQSPASLAVSLGQRATISCRASRSVSTSGYSYMHWYQQKPGQPPKLLIYLASNLESGVPARFSGSGSGTNFTLNIHPVEEEDAATYYCQHSRELPYTFGGGTKLEIKR
notes: Murine variable regions on human IgG1 / human light chain constant regions

IC50 (ng/mL), inhibition of IL-8 secretion mediated by CD70/CD27 binding (U266 cells + HT1080/CD27 cells) [2]: 23.3 ng/mL | Imax (%), maximum inhibition rate of IL-8 secretion from CD27 cells [2]: 70.9% | EC50 (read off the curve) [3]: ~0.01 µg/mL | EC50 (read off the curve) [4]: ~0.03 µg/mL
B2: 41D12 (positive control antibody, see WO2012123586) (antibody, human IgG1, lambda, V domains shown)
VH: EVQLVESGGGLVQPGGSLRLSCAASGFTFSVYYMNWVRQAPGKGLEWVSDINNEGGTTYYADSVKGRFTISRDNSKNSLYLQMNSLRAEDTAVYYCARDAGYSNHVPIFDSWGQGTLVTVSS
VL: QAVVTQEPSLTVSPGGTVTLTCGLKSGSVTSDNFPTWYQQTPGQAPRLLIYNTNTRHSGVPDRFSGSILGNKAALTITGAQADDEAEYFCALFISNPSVEFGGGTQLTVLG

IC50 (ng/mL), inhibition of IL-8 secretion mediated by CD70/CD27 binding (U266 cells + HT1080/CD27 cells) [2]: 24.2 ng/mL | Imax (%), maximum inhibition rate of IL-8 secretion from CD27 cells [2]: 71.1% | EC50 (read off the curve) [3]: ~0.04 µg/mL | EC50 (read off the curve) [4]: ~0.03 µg/mL
B3: 41D12 (afuc) (antibody, human IgG1, lambda, V domains shown)
VH: B2 VH
VL: B2 VL
modifications: non-fucosylated (heavy chain not modified by fucosylation)
notes: also called non-fucosylated antibody of 41D12

Kd [1]: 0.0375 nM | koff [1]: 8.37e-05 s⁻¹ | kon [1]: 2.23e+06 M⁻¹ s⁻¹
B4: CHF4 (chimeric antibody of F4) (antibody, human IgG1, kappa, V domains shown)
VH: QVQLKQSGAELVKPGASVKMSCKASGDTFPRYNMHWLKQTPGQGLEWIGAIFPGNGETSYNQNFKGKATLTADKSSSTAYMQLNSLTSEDSAVYYCARNSYYDYAWFTYWGQGTLVTVSA
VL: DIVMTQSPASLDVSLGQRATISCRASKSVSSSGYSFMHWYQQKPGQPPKLLISLASNLESGVPARFSGSGSGTDFTLTIYPVEEEDAATYYCQHSREFPPTFGSGTKLEIKR
notes: as for B1

IC50 (ng/mL), inhibition of IL-8 secretion mediated by CD70/CD27 binding (U266 cells + HT1080/CD27 cells) [2]: 13 ng/mL | Imax (%), maximum inhibition rate of IL-8 secretion from CD27 cells [2]: 92.3% | EC50 (read off the curve) [3]: ~0.02 µg/mL | EC50 (read off the curve) [4]: ~0.02 µg/mL | IC50 (read off the curve) [5]: ~0.3 µg/mL
B5: huF4011 (afuc) (antibody, human IgG1, kappa, V domains shown)
VH: B7 VH with N55T
VL: B6 VL with R27K, T31S, Y36F, Y53S, S56D, L98F, Y100P, G104Q, V108L
modifications: non-fucosylated (heavy chain not modified by fucosylation)
notes: also called non-fucosylated antibody of huF4011

Kd [1]: 0.0455 nM | koff [1]: 0.000114 s⁻¹ | kon [1]: 2.51e+06 M⁻¹ s⁻¹
B9: huF4009 (antibody, human IgG1, kappa, V domains shown)
VH: B7 VH with N55T
VL: B6 VL with R27K, T31S, Y36F, S56D, L98F, Y100P, G104Q, V108L
notes: Humanized IgG1

Kd [1]: 0.0462 nM | koff [1]: 0.000154 s⁻¹ | kon [1]: 3.33e+06 M⁻¹ s⁻¹
B10: huB1025 (antibody, human IgG1, kappa, V domains shown)
VH: B6 VH with M4L, T98R
VL: B6 VL
notes: Humanized IgG1

Kd [1]: 0.0392 nM | koff [1]: 9.56e-05 s⁻¹ | kon [1]: 2.44e+06 M⁻¹ s⁻¹
B11: huF4026 (antibody, human IgG1, kappa, V domains shown)
VH: B7 VH with L70I
VL: B6 VL with R27K, T31S, Y36F, L98F, Y100P, G104Q, V108L
notes: Humanized IgG1

Kd [1]: 0.0442 nM | koff [1]: 0.000195 s⁻¹ | kon [1]: 4.41e+06 M⁻¹ s⁻¹
B17: huB7022 (antibody, human IgG1, kappa, V domains shown)
VH: B16 VH with V2I, A24T, D73E
VL: B16 VL with Q38R, V43S, T69R, D70Q, F71Y
notes: Humanized IgG1

Reference: patent US20230257472A1 (JIANGSU HENGRUI MEDICINE, published 2023)
